{"source": "paper PMC9929644", "about": "(The EMBO Journal, 2023)", "key": {"GST‐LMO4": {"target": "GST‐LMO4 (UniProt P61968)", "experiment": "ITC"}, "MBP‐Jacob‐262‐532": {"target": "T1, MBP‐Jacob‐262‐532 (UniProt Q9EPI6 262-532)", "T1 sequence (looked up)": "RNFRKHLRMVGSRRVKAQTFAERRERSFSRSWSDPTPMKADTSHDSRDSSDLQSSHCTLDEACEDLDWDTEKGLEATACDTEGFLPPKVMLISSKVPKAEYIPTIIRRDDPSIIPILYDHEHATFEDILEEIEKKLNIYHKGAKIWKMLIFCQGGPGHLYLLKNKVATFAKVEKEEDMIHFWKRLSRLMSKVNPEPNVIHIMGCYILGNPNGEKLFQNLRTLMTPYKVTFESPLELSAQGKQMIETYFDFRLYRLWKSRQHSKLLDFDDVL", "experiment": "pull-down"}}, "data": [{"molecule": "Jacob (protein of the ITC experiment) (from UniProt Q9EPI6 1-532) (natural protein)", "values": [{"measurement": "Kd", "setting": "GST‐LMO4", "value": 370, "unit": "nM"}]}, {"molecule": "REAARECRRKKKEYVKCLENRVAVLENQNKTLIEELKALKDLYCHKSD (domain or fragment, UniProt P15337-1 294-341, looked up)", "note": "[bZIP domain of CREB (His‐SUMO‐CREB‐294‐341)]", "values": [{"measurement": "binding result", "setting": "MBP‐Jacob‐262‐532", "value": "binds"}]}]}
